Substrate in data set [1]: NCCCCCCCCCCCCNCc1ccccc1
Description: (§1) Activity at recombinant human MAO-B expressed in baculovirus infected BT1 cells assessed as hydrogen peroxide generation rate preincubated for 30 mins by Amplex Red assay.

Substrate in data set [2]: CN(CCCCCCCCCCCCN)Cc1ccccc1
Described as §1.

Substrate in data set [3]: NCCCCCCCCCCCCNCc1cccs1
The data set is described as §1.

Substrate in data set [4]: NCCCOCCCCOCCCNCc1cccs1
The description is as §1.

Substrate in data set [5]: NCCCCCCCCCCCCNCc1ccccc1
The data set is described as follows: (§2) Activity at recombinant human MAO-A expressed in baculovirus infected BT1 cells assessed as hydrogen peroxide generation rate preincubated for 30 mins by Amplex Red assay.

Substrate in data set [6]: CN(CCCCCCCCCCCCN)Cc1ccccc1
The data set is described as §2.

Substrate in data set [7]: NCCCCCCCCCCCCNCc1cccs1
The description is as §2.

Substrate in data set [8]: NCCCCCCCCCCCCNCc1ccccc1
The data set is described as follows: (§3) Activity at recombinant human VAP-1 assessed as hydrogen peroxide generation rate preincubated for 30 mins by Amplex Red assay.

Substrate in data set [9]: CN(CCCCCCCCCCCCN)Cc1ccccc1
The data set is described as §3.

Substrate in data set [10]: NCCCCCCCCNCCCNCc1cccs1
The data set is described as §3.

Substrate in data set [11]: NCCCCCCCCCCCCNCc1cccs1
Described as §3.

Substrate in data set [12]: NCCCOCCCCOCCCNCc1cccs1
The description is as §3.

B1: Amine oxidase [flavin-containing] B (Homo sapiens) (protein)
chain: MSNKCDVVVVGGGISGMAAAKLLHDSGLNVVVLEARDRVGGRTYTLRNQKVKYVDLGGSYVGPTQNRILRLAKELGLETYKVNEVERLIHHVKGKSYPFRGPFPPVWNPITYLDHNNFWRTMDDMGREIPSDAPWKAPLAEEWDNMTMKELLDKLCWTESAKQLATLFVNLCVTAETHEVSALWFLWYVKQCGGTTRIISTTNGGQERKFVGGSGQVSERIMDLLGDRVKLERPVIYIDQTRENVLVETLNHEMYEAKYVISAIPPTLGMKIHFNPPLPMMRNQMITRVPLGSVIKCIVYYKEPFWRKKDYCGTMIIDGEEAPVAYTLDDTKPEGNYAAIMGFILAHKARKLARLTKEERLKKLCELYAKVLGSLEALEPVHYEEKNWCEEQYSGGCYTTYFPPGILTQYGRVLRQPVDRIYFAGTETATHWSGYMEGAVEAGERAAREILHAMGKIPEDEIWQSEPESVDVPAQPITTTFLERHLPSVPGLLRLIGLTTIFSATALGFLAHKRGLLVRV
Take B1: the Km in data set [1] came to 50 µM; in [2] it was 12 µM; in [3], 18 µM; in [4] it was 401 µM.

B2: Amine oxidase [flavin-containing] A (Homo sapiens) (protein)
chain: MENQEKASIAGHMFDVVVIGGGISGLSAAKLLTEYGVSVLVLEARDRVGGRTYTIRNEHVDYVDVGGAYVGPTQNRILRLSKELGIETYKVNVSERLVQYVKGKTYPFRGAFPPVWNPIAYLDYNNLWRTIDNMGKEIPTDAPWEAQHADKWDKMTMKELIDKICWTKTARRFAYLFVNINVTSEPHEVSALWFLWYVKQCGGTTRIFSVTNGGQERKFVGGSGQVSERIMDLLGDQVKLNHPVTHVDQSSDNIIIETLNHEHYECKYVINAIPPTLTAKIHFRPELPAERNQLIQRLPMGAVIKCMMYYKEAFWKKKDYCGCMIIEDEDAPISITLDDTKPDGSLPAIMGFILARKADRLAKLHKEIRKKKICELYAKVLGSQEALHPVHYEEKNWCEEQYSGGCYTAYFPPGIMTQYGRVIRQPVGRIFFAGTETATKWSGYMEGAVEAGERAAREVLNGLGKVTEKDIWVQEPESKDVPAVEITHTFWERNLPSVSGLLKIIGFSTSVTALGFVLYKYKLLPRS
Consider B2, for which the Km in data set [5] amounted to 43 µM; in [6] it was 44 µM; in data set [7], 80 µM.

B3: Amine oxidase [copper-containing] 3 (Homo sapiens), Q16853 (protein)
chain: MNQKTILVLLILAVITIFALVCVLLVGRGGDGGEPSQLPHCPSVSPSAQPWTHPGQSQLFADLSREELTAVMRFLTQRLGPGLVDAAQARPSDNCVFSVELQLPPKAAALAHLDRGSPPPAREALAIVFFGRQPQPNVSELVVGPLPHPSYMRDVTVERHGGPLPYHRRPVLFQEYLDIDQMIFNRELPQASGLLHHCCFYKHRGRNLVTMTTAPRGLQSGDRATWFGLYYNISGAGFFLHHVGLELLVNHKALDPARWTIQKVFYQGRYYDSLAQLEAQFEAGLVNVVLIPDNGTGGSWSLKSPVPPGPAPPLQFYPQGPRFSVQGSRVASSLWTFSFGLGAFSGPRIFDVRFQGERLVYEISLQEALAIYGGNSPAAMTTRYVDGGFGMGKYTTPLTRGVDCPYLATYVDWHFLLESQAPKTIRDAFCVFEQNQGLPLRRHHSDLYSHYFGGLAETVLVVRSMSTLLNYDYVWDTVFHPSGAIEIRFYATGYISSAFLFGATGKYGNQVSEHTLGTVHTHSAHFKVDLDVAGLENWVWAEDMVFVPMAVPWSPEHQLQRLQVTRKLLEMEEQAAFLVGSATPRYLYLASNHSNKWGHPRGYRIQMLSFAGEPLPQNSSMARGFSWERYQLAVTQRKEEEPSSSSVFNQNDPWAPTVDFSDFINNETIAGKDLVAWVTAGFLHIPHAEDIPNTVTVGNGVGFFLRPYNFFDEDPSFYSADSIYFRGDQDAGACEVNPLACLPQAAACAPDLPAFSHGGFSHN
Consider B3, for which the Km is 5 µM in [8]; 9 µM in [9]; 1730 µM in [10]; 11 µM in data set [11]; 350 µM in data set [12].
